Patent US20030148511A1

Biological target: human granzyme B (human) (UniProt P10144)
Test: cell-based or functional assay

UniProt P10144, sequence (P10144 21-247 limits assumed): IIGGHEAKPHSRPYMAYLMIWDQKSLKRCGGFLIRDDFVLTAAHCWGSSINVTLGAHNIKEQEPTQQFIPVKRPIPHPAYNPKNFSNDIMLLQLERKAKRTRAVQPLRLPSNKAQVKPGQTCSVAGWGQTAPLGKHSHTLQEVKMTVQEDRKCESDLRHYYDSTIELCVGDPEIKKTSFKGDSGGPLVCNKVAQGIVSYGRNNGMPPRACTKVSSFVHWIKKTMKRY

apoptosis of Jurkat cells (% of cells YOPRO-1-positive) after perforin and human granzyme B (% of cells YOPRO-1-positive): 27
Substance: serine protease inhibitor 6 (SPI6), mouse serpin
